The supplement of paper PMC10724198
± gives the standard deviation of the averaged measurements.

Test system: Saccharomyces cerevisiae
Assay: protein stability index of tFT-peptide fusion (C-terminal peptide) (PSI (0-1 scale)); higher = more stable (slower turnover)
Conditions: genetic background: wild type; temperature: 30 C
Experimental: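 Multiplexed protein stability (MPS) profiling in S. cerevisiae. Random 12-aa peptides (tFT-X12 library) are fused to the C-terminus of a sfGFP-mCherry tandem fluorescent timer, after mCherry and a GGGS linker. Cells are FACS-sorted into 8 mCherry/sfGFP bins and deep-sequenced. The protein stability index (PSI) is the read-weighted bin average, scaled from 0 (unstable) to 1 (stable). Only peptides with >10 reads are reported; cells were grown at 30 °C in SC-His with glucose.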
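Further: PSI is a weighted mean of sequencing reads over stability bins, variants kept only with over 10 reads, mCherry proximal and sfGFP distal, peptide attached via GGGS linker.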

Sequence	protein stability index
GDRSKECAMKNG	0.67 ± 0.013
GDVLLLGGAGER	0.671 ± 0.07
GDVPHRIEGEFL	0.788 ± 0.038
GDYITIGGGLIW	0.759 ± 0.017
GEAEGGEEYGEG	0.636 ± 0.017
GEARVGGRWWSK	0.7722 ± 0.0071
GECASVFSSGFF	0.72 ± 0.17
GEDRLSPVGWDR	0.702 ± 0.035
GEGNRVPNPSRP	0.669 ± 0.022
GEGRGRTETEMK	0.682 ± 0.033
GEGTQGVSIGPR	0.711 ± 0.015
GEIGVRGYQAEE	0.739 ± 0.029
GEKEARRKKVSM	0.749 ± 0.071
GEKKTNHEPGAS	0.759 ± 0.06
GELLLVAGMHWL	0.681 ± 0.023
GERHTGTLRRPD	0.701 ± 0.065
GERLGECGGGVG	0.6652 ± 0.0021
GESAWWRSFGDV	0.791 ± 0.11
GESRVGMRRGGR	0.667 ± 0.029
GETGRGRRPRSQ	0.667 ± 0.062
GEVGTVEGGATG	0.69596 ± 7e-05
GEVMLRYQRISF	0.713 ± 0.018
GFEWWCQSVSVG	0.688 ± 0.018
GFGWYVPESWSS	0.616 ± 0.043
GFIDGSTVRTCL	0.64 ± 0.054
GFISVGVYPVVR	0.677 ± 0.0081

Sequence	protein stability index
GFLGVDLVYVVH	0.567 ± 0.033
GFTHAPTVPSPE	0.745 ± 0.017
GFTLCPVSLGYF	0.688 ± 0.017
GGAGGTGVRCGT	0.669 ± 0.017
GGAPRSSGRAGE	0.691 ± 0.028
GGAVAVRGGSAA	0.636 ± 0.035
GGCCLWVGFLGG	0.7016 ± 0.0021
GGCEWWAWGRGG	0.727 ± 0.032
GGCIGAKSVGGG	0.652 ± 0.027
GGCRRGVQLFWD	0.7236 ± 0.0023
GGCVGVLGGGGF	0.659 ± 0.016
GGDRGHVTGEVG	0.657 ± 0.06
GGEKEREEEDKE	0.625 ± 0.056
GGFGGAWRGWAP	0.692 ± 0.016
GGFLATAGLSVT	0.673 ± 0.056
GGFNARVSPTRL	0.709 ± 0.1
GGFRSVCGGVNW	0.665 ± 0.011
GGGAGRGSRVWG	0.746 ± 0.076
GGGAIFDRLLCL	0.6545 ± 0.0049
GGGARWGWGGRM	0.648 ± 0.033
GGGCARRRGGRV	0.6958 ± 0.0049
GGGDFDTLWDSR	0.789 ± 0.03
GGGDRRRTARLS	0.578 ± 0.027
GGGEGRGGVEYG	0.64 ± 0.037
GGGERLDDIVGG	0.801 ± 0.081
GGGEVLFHLRRA	0.673 ± 0.019

Sequence	protein stability index
GGGEYHTIMRTT	0.786 ± 0.2
GGGGCDVGGCVG	0.675 ± 0.039
GGGGGEAGVIGR	0.892 ± 0.15
GGGGGGACRPVG	0.659 ± 0.094
GGGGGGAEGAGW	0.711 ± 0.02
GGGGGGGCGGDR	0.654 ± 0.08
GGGGGGGGGGGV	0.709 ± 0.053
GGGGGGGGRGWG	0.63411 ± 1.7e-05
GGGGGGGVAGGV	0.715 ± 0.041
GGGGGGIGVGMG	0.705 ± 0.024
GGGGGGKEAVVR	0.649 ± 0.053
GGGGGMEPGCGP	0.682 ± 0.043
GGGGGREPGCGP	0.707 ± 0.01
GGGGGVGGVGRV	0.668 ± 0.062
GGGGGVGVEGEP	0.723 ± 0.067
GGGGGWVRWASG	0.689 ± 0.064
GGGGLGRGKGCW	0.706 ± 0.03
GGGGMASRGGNK	0.685 ± 0.027
GGGGMGGCSDDG	0.742 ± 0.17
GGGGRAALRWYG	0.651 ± 0.014
GGGGSGRRIGCR	0.696 ± 0.035
GGGGSRGRVGDI	0.7182 ± 0.0022
GGGLLMVAASRC	0.634 ± 0.014
GGGRAAIVRGGW	0.682 ± 0.014
GGGRAEPLEPGV	0.648 ± 0.07
GGGRGGAAEGAV	0.781 ± 0.07

Sequence	protein stability index
GGGRRWPGGSGG	0.775 ± 0.075
GGGRVSAGGDSG	0.751 ± 0.071
GGGVGLGGYGEG	0.636 ± 0.055
GGGVGMLRRSGG	0.689 ± 0.054
GGGVSFWVGVVA	0.656 ± 0.042
GGGWDWWFGVPG	0.792 ± 0.13
GGGWGGEAVRVW	0.65 ± 0.055
GGGWGRVALGQG	0.612 ± 0.015
GGHRRQGKKFTP	0.711 ± 0.067
GGKARKRKDKRA	0.645 ± 0.1
GGKNVKCLDRGL	0.693 ± 0.014
GGLNIGIGYSVG	0.643 ± 0.1
GGLRWVLGAQAV	0.707 ± 0.063
GGLVGSSVWGWG	0.703 ± 0.04
GGLVVRCGVTSS	0.695 ± 0.15
GGNKETKITRIE	0.698 ± 0.011
GGPLDASICRSS	0.694 ± 0.061
GGPPPHHKTRPG	0.603 ± 0.063
GGPRDNEGSWWV	0.7122 ± 0.0029
GGQGRYSAPPSR	0.624 ± 0.02
GGREDGKRGRQK	0.684 ± 0.055
GGRGFRGVLRSN	0.696 ± 0.069
GGRGGEGLVREG	0.667 ± 0.019
GGRGRGMGGIFG	0.667 ± 0.053
GGRGRRAGGSSG	0.745 ± 0.016
GGRGRRRGGVGG	0.701 ± 0.011

Sequence	protein stability index
GGRGRRWAGPRC	0.702 ± 0.039
GGRGVVVGQGAG	0.705 ± 0.027
GGRGWAGRGGSG	0.707 ± 0.052
GGRPRGLVAGAA	0.657 ± 0.022
GGRTEYILQLKK	0.686 ± 0.021
GGRVARRGAERG	0.654 ± 0.14
GGRVGGSMGVGG	0.659 ± 0.028
GGRWMWWAGAAG	0.79 ± 0.3
GGSSWSLGGGCG	0.713 ± 0.023
GGTGRRRVGRRG	0.696 ± 0.018
GGTVAGLYILGF	0.6301 ± 0.001
GGVAADGGGGRG	0.675 ± 0.043
GGVAAVGGPWGN	0.75 ± 0.052
GGVASGGCFWGR	0.6761 ± 0.0053
GGVECVRGTGGR	0.659 ± 0.046
GGVGLVGEVCPI	0.688 ± 0.028
GGVGRGADASLA	0.622 ± 0.017
GGVPGEGTGGRE	0.644 ± 0.027
GGVRVPRVDVVG	0.618 ± 0.042
GGWAGGRQGCGG	0.77 ± 0.012
GGWAHGEGAGDC	0.614 ± 0.028
GGWFLLTRLGNW	0.684 ± 0.035
GGWGWGERRSRE	0.658 ± 0.06
GGWHVVGGEGVG	0.524 ± 0.0082
GGWSHMHLGLDG	0.665 ± 0.024
GGYDFRCPCCGV	0.723 ± 0.025

Sequence	protein stability index
GHGFPSLPLILS	0.57 ± 0.076
GHGLLYLIDLCS	0.638 ± 0.074
GHLCVPWFGLVL	0.659 ± 0.11
GHRTIPHSNCLS	0.65 ± 0.0099
GHSLARHRHRGS	0.701 ± 0.0095
GHSNRDCFGIKC	0.621 ± 0.024
GHWRQCSVAEGA	0.643 ± 0.0024
GHYLLCPQGQSD	0.6675 ± 0.0024
GIARRSHSNETV	0.766 ± 0.078
GIEAKPLEGKTQ	0.7026 ± 0.0018
GIGLYMWRNSKW	0.796 ± 0.04
GIGRGLGGLKSG	0.617 ± 0.026
GIGRRIGSELSF	0.668 ± 0.047
GIHFKIHKSSSN	0.647 ± 0.013
GIKTRTTRVRGE	0.706 ± 0.018
GILPDSCRSNTG	0.623 ± 0.081
GILVALGSPLLV	0.592 ± 0.048
GINRLRNKEKEE	0.775 ± 0.073
GISGRPDGGRGG	0.658 ± 0.0071
GKEEGRETGREG	0.741 ± 0.038
GKFKKRIRRGIK	0.695 ± 0.011
GKGDEPKAPTDR	0.65 ± 0.028
GKGTRGTRRGGK	0.632 ± 0.024
GKIKKTTDKILI	0.639 ± 0.11
GKILSNNQIFKR	0.702 ± 0.057
